Reference: patent US20160009782A1 (Stanford University, published 2016)

Columns and labels:
[1] = biological target: T1, oligomerized synthetic human Aβ1-42 peptide (oligo-Aβ42) (human, N-terminal biotin (biotinylated peptide used in the cell, neuron and streptavidin pull-down assays)); assay: synthetic Aβ42 oligomers immunoprecipitated with PirB-Fc proteins, Western blot α-Aβ (6E10), fully reduced
T1 construct: Soluble oligomer mixture, mainly high-n oligomers; About 10-20% stays as monomer or low-n oligomer; Concentrations are monomer equivalents of total peptide; this is probably a misprint, since the peptide used was bought as human Aβ1-42; Both biotinylated and non-biotinylated peptides were obtained; also called Aβ42 oligomers; oligomerized Aβ42

[2] = biological target: T1, oligomerized synthetic human Aβ1-42 …; assay: oligo-Aβ42 on transfected HEK293 cells, fluorescence, control-vector cells subtracted
Excerpt: (§1) Bottom: bar graphs of average band intensities±SEM from experiments such as that shown in FIG. 10C (n=3; see also FIG. 2H). […] Top, right: Western blot with anti-Aβ antibodies specific for oligomeric forms (OMAB; see FIG. 10D); Bottom, left: quantification of Aβ42 binding. Normalized average band intensities±SEM (n=3).
(§2) The bound Aβ peptides were visualized with streptavidin-Alexa fluorophore conjugates (Alexa 488, 598 or 647; wavelength choice depending on experiments) (J. Lauren, et al. (2009) “Cellular prion protein mediates impairment of synaptic plasticity by amyloid-beta oligomers.” Nature 457, 1128). […] Fluorescent images were captured with fixed illumination and exposure time using a Nikon 20× objective of numerical aperture 0.75, and then fluorescence intensity was quantified using ImageJ software (NIH). In each experiment, values from control vector transfected cells were used as background, and subtracted from those of experimental cells.

[3] = biological target: T1, oligomerized synthetic human Aβ1-42 …; assay: Aβ42 oligomers pulled down with purified Fc fusion protein, Western blot for Aβ, normalised band intensity (n=3)
Excerpt: as §1, with “Data are mean±SEM (n=5). […] Mean±SEM. […] Bottom:” for “Bottom:”

[4] = biological target: T1, oligomerized synthetic human Aβ1-42 …; assay: oligomerized Aβ42 immunoprecipitated with soluble Fc fusion protein, Western blot α-Aβ (4G8) and α-oligo Aβ (OMAB)
Excerpt: as §1, with “Mean±SEM. […] Bottom:” for “Bottom:”
The Aβ signals were quantified as described above.

[5] = biological target: T1, oligomerized synthetic human Aβ1-42 …; assay: Aβ42 oligomers on transfected HEK293 cells, fluorescence staining
Excerpt: as §2

B1: D3D6 (PirB-Fc) (Fc fusion)
chain: GNLQKPTIKAEPGSVITSKRAMTIWCQGNLDAEVYFLHNEKSQKTQSTQTLQEPGNKGKFFIPSVTLQHAGQYRCYCYGSAGWSQPSDTLELVVTGIYEYYEPRLSVLPSPVVTAGGNMTLHCASDFPYDKFILTKEDKKFGNSLDTEHISSSGQYRALFIIGPTTPTHTGAFRCYGYYKNAPQLWSVPSALQQILISGLSKKPSLLTHQGHILDPGMTLTLQCFSDINYDRFALHKVGGADIMQHSSQQTDTGFSVANFTLGYVSSSTGGQYRCYGAHNLSSEWSASSEPLDILITGQLPLTPSLSVQPNHTVHSGETVSLLCWSMDSVDTFILSKEGSAQQPLRLKSKSHDQQSQAEFSMSAVTSHLSGTYRCYGAQDSSFYLLSSASAPVELTVSGPIETSTPPPTMSMPLGGLHMYLKA
modifications: Fc-mediated homodimer; one chain given
notes: not in the list MOLECULES; also called PirB (D3D6)-Fc; PirB:221-643 (D3D6); not shown: human IgG1-Fc of vector pFUSE-hIgG1e3-Fc2 (InvivoGen) and the cloning-junction residues
binding result [1]: no binding

B2: human killer immune receptor Kir (3DL1) expressed in HEK293 cells (receptor, UniProt P43629 22-444, looked up)
chain: HMGGQDKPFLSAWPSAVVPRGGHVTLRCHYRHRFNNFMLYKEDRIHIPIFHGRIFQESFNMSPVTTAHAGNYTCRGSHPHSPTGWSAPSNPVVIMVTGNHRKPSLLAHPGPLVKSGERVILQCWSDIMFEHFFLHKEGISKDPSRLVGQIHDGVSKANFSIGPMMLALAGTYRCYGSVTHTPYQLSAPSDPLDIVVTGPYEKPSLSAQPGPKVQAGESVTLSCSSRSSYDMYHLSREGGAHERRLPAVRKVNRTFQADFPLGPATHGGTYRCFGSFRHSPYEWSDPSDPLLVSVTGNPSSSWPSPTEPSSKSGNPRHLHILIGTSVVIILFILLLFFLLHLWCSNKKNAAVMDQEPAGNRTANSEDSDEQDPEEVTYAQLDHCVFTQRKITRPSQRPKTPPTDTILYTELPNAKPRSKVVSCP
notes: whole, on cells
binding result [2]: no binding (tested: 200 nM)

B3: LilrB2 (D3D4)-Fc, LilrB2 residues 219-458 fused to human IgG1-Fc (Fc fusion)
chain: PGVSKKPSLSVQPGPVVAPGESLTLQCVSDVGYDRFVLYKEGERDLRQLPGRQPQAGLSQANFTLGPVSRSYGGQYRCYGAHNLSSECSAPSDPLDILITGQIRGTPFISVQPGPTVASGENVTLLCQSWRQFHTFLLTKAGAADAPLRLRSIHEYPKYQAEFPMSPVTSAHAGTYRCYGSLNSDPYLLSHPSEPLELVVSGPSMGSSPPPTGPISTPAGPEDQPLTPTGSDPQSGLGRH
notes: not shown: human IgG1-Fc from the pFUSE-hIgG1e3-Fc2 vector (InvivoGen); exact limits, linker and any engineered changes are not sta
binding result [3]: no binding

B4: PirB (D5D6)-Fc, PirB residues 419-643 fused to human IgG1-Fc (Fc fusion)
chain: GLSKKPSLLTHQGHILDPGMTLTLQCFSDINYDRFALHKVGGADIMQHSSQQTDTGFSVANFTLGYVSSSTGGQYRCYGAHNLSSEWSASSEPLDILITGQLPLTPSLSVQPNHTVHSGETVSLLCWSMDSVDTFILSKEGSAQQPLRLKSKSHDQQSQAEFSMSAVTSHLSGTYRCYGAQDSSFYLLSSASAPVELTVSGPIETSTPPPTMSMPLGGLHMYLKA
notes: Used as the negative control in the pull-down assays; not shown: human IgG1-Fc from the pFUSE-hIgG1e3-Fc2 vector (InvivoGen); exact limits, linker and any engineered changes are not sta
binding result [4]: no binding

B5: human LilrB1 expressed in HEK293 cells (receptor, UniProt Q8NHL6 24-650, looked up)
chain: GHLPKPTLWAEPGSVITQGSPVTLRCQGGQETQEYRLYREKKTALWITRIPQELVKKGQFPIPSITWEHAGRYRCYYGSDTAGRSESSDPLELVVTGAYIKPTLSAQPSPVVNSGGNVILQCDSQVAFDGFSLCKEGEDEHPQCLNSQPHARGSSRAIFSVGPVSPSRRWWYRCYAYDSNSPYEWSLPSDLLELLVLGVSKKPSLSVQPGPIVAPEETLTLQCGSDAGYNRFVLYKDGERDFLQLAGAQPQAGLSQANFTLGPVSRSYGGQYRCYGAHNLSSEWSAPSDPLDILIAGQFYDRVSLSVQPGPTVASGENVTLLCQSQGWMQTFLLTKEGAADDPWRLRSTYQSQKYQAEFPMGPVTSAHAGTYRCYGSQSSKPYLLTHPSDPLELVVSGPSGGPSSPTTGPTSTSGPEDQPLTPTGSDPQSGLGRHLGVVIGILVAVILLLLLLLLLFLILRHRRQGKHWTSTQRKADFQHPAGAVGPEPTDRGLQWRSSPAADAQEENLYAAVKHTQPEDGVEMDTRSPHDEDPQAVTYAEVKHSRPRREMASPPSPLSGEFLDTKDRQAEEDRQMDTEAAASEAPQDVTYAQLHSLTLRREATEPPPSQEGPSPAVPSIYATLAIH
notes: whole, on cells; not shown: C-terminal Myc tag
binding result [5]: no binding (tested: 200 nM)
